This note sets out measurements from patent US11541126B1, “Anti-ASGR1 antibody TLR8 agonist comprising conjugates and uses thereof” (Silverback Therapeutics, Inc., priority 2020, dated 2023).

The assay concerns the target T1, HepG2 cells (which express ASGR1) (Homo sapiens, UniProt P07306).
T1 construct: endogenous in cells; host or cells: HepG2
T1 sequence (P07306 1-291): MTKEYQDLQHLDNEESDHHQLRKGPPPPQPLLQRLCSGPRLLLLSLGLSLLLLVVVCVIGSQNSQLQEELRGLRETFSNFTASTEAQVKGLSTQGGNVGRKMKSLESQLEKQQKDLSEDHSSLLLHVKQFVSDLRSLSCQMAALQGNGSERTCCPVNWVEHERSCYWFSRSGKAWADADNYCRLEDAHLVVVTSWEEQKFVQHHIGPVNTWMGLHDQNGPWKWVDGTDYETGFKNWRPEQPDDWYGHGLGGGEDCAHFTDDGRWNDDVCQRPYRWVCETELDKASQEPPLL
Description: Guava HepG2 cell binding screen of humanized anti-ASGR1 clones. Details: unit not given here. As to conditions: humanized G2D clones (Table 5); two numbers per cell, not explained. As for the experimental part:
Hybridomas producing monoclonal antibodies (mAbs) specific for human ASGR1 were prepared from Balb/C mice immunized with ASGR1-AviHis at a service provider using their propriety protocol. Antibody heavy and light chain sequences were obtained, amplified, and cloned. Clone supernatants containing the expressed mAbs were screened for binding to a human ASGR1-IgG1Fc fusion protein, and those with a positive signal as measured by enzyme linked immunosorbent assay (ELISA) were screened for cell binding on HepG2 cells (which express ASGR1).

Changes are numbered by the printed parent chain. Names may count otherwise.

B1: hzG2D-12: humanized G2D clone; "G2D VL region ... of clones 1-16, 19-21, 26-29, 31, and 33 ... grafted into the human germline sequence VKI-L1 with JK4" (antibody, V domains shown)
VH: QVQLVQSGAEVKKPGASVKVSCKASGYSFTGYYMHWVRQAPGQRLEWMGRINPNNGATNYNQNFKDKATITRDTSASTAYMELSSLRSEDTAVYYCTSVNFYYWGQGTTLTVSS
VL: DIQMTQSPSSLSASVGDRVTITCKASQVINSYLSWFQQKPGKAPKSLIYRANTLVDGVPSRFSGSGSGTDFTLTISSLQPEDFATYYCLQYAEFPYTFGGGTKVEIK
modifications: Synthetic sequence hzG2.3D VH T28S, R66K, V67A, A93T, R94S, V109L; Synthetic sequence hzG2D VLa
On to B1, for which the “Guava HepG2 Screen” value is recorded as 158/113.

B2: hzG2D-16: humanized G2D clone; "G2D VL region ... of clones 1-16, 19-21, 26-29, 31, and 33 ... grafted into the human germline sequence VKI-L1 with JK4" (antibody, V domains shown)
VH: B1 VH with T69S, I70L, R72V
VL: B1 VL
modifications: Synthetic sequence hzG2.5D VH T28S, R66K, V67A, T68S, I69L, R71V, A93T, R94S, V109L; Synthetic sequence hzG2D VLa
On to B2, for which the “Guava HepG2 Screen” value is on record as 165/108.

B3: hzG2D-22: humanized G2D clone; "G2D VL region ... of clones 22, 23, 30, 32, and 34-37 ... grafted into the human germline sequence VKI-O2 with JK4" (antibody, V domains shown)
VH: B1 VH with S28T, T69S, I70L, R72V, T97A, S98R, L110V
VL: B1 VL with F36Y, S46L
modifications: Synthetic sequence hzG2.46D VH R66K, V67A, T68S, I69L, R71V; Synthetic sequence hzG2D VLb
As for B3, the “Guava HepG2 Screen” value is given as “None”.

B4: hzG2D-23: humanized G2D clone; "G2D VL region ... of clones 22, 23, 30, 32, and 34-37 ... grafted into the human germline sequence VKI-O2 with JK4" (antibody, V domains shown)
VH: B1 VH with S28T, T69S, I70L, R72V, L110V
VL: B1 VL with F36Y, S46L
modifications: Synthetic sequence hzG2.47D VH R66K, V67A, T68S, I69L, R71V, A93T, R94S; Synthetic sequence hzG2D VLb
As to B4, the “Guava HepG2 Screen” value is on record as 198/131.

B5: hzG2D-21: humanized G2D clone; "G2D VL region ... of clones 1-16, 19-21, 26-29, 31, and 33 ... grafted into the human germline sequence VKI-L1 with JK4" (antibody, V domains shown)
VH: B1 VH with S28T, T69S, I70L, R72V, L110V
VL: B1 VL
modifications: Synthetic sequence hzG2.47D VH R66K, V67A, T68S, I69L, R71V, A93T, R94S; Synthetic sequence hzG2D VLa
As for B5, the “Guava HepG2 Screen” value is reported as 199/127.

B6: hzG2D-26: humanized G2D clone; "G2D VL region ... of clones 1-16, 19-21, 26-29, 31, and 33 ... grafted into the human germline sequence VKI-L1 with JK4" (antibody, V domains shown)
VH: B1 VH with S28T, T69S, I70L, R72V, L110V
VL: B1 VL with K45E, S46T
modifications: Synthetic sequence hzG2.47D VH R66K, V67A, T68S, I69L, R71V, A93T, R94S; Synthetic sequence hzG2.3D VLa K45E, S46T
Regarding B6, the “Guava HepG2 Screen” value was 185/114.

B7: hzG2D-15: humanized G2D clone; "G2D VL region ... of clones 1-16, 19-21, 26-29, 31, and 33 ... grafted into the human germline sequence VKI-L1 with JK4" (antibody, V domains shown)
VH: B1 VH with S28T, T69S, I70L, R72V
VL: B1 VL
modifications: Synthetic sequence hzG2.42D VH R66K, V67A, T68S, I69L, R71V, A93T, R94S, V109L; Synthetic sequence hzG2D VLa
With B7, the “Guava HepG2 Screen” value is 172/119.

B8: hzG2D-13: humanized G2D clone; "G2D VL region ... of clones 1-16, 19-21, 26-29, 31, and 33 ... grafted into the human germline sequence VKI-L1 with JK4" (antibody, V domains shown)
VH: B1 VH with K67R, A68V, T69S, I70L, R72V
VL: B1 VL
modifications: Synthetic sequence hzG2.7D VH T28S, T68S, I69L, R71V, A93T, R94S, V109L; Synthetic sequence hzG2D VLa
Turning to B8, the “Guava HepG2 Screen” value is listed as 140/83.

B9: hzG2D-25: humanized G2D clone; "G2D VL region ... of clones 24 and 25 ... grafted into the human germline sequence VKI-A20 with JK4 to generate hzG2D VLc (SEQ ID NO:249)" (antibody, V domains shown)
VH: B1 VH with S28T, T69S, I70L, R72V, L110V
VL: B1 VL with F36Y, A43V, S46L, F83V
modifications: Synthetic sequence hzG2.47D VH R66K, V67A, T68S, I69L, R71V, A93T, R94S; Synthetic sequence hzG2D VLc
Regarding B9, the “Guava HepG2 Screen” value was “None”.

B10: hzG2D-24: humanized G2D clone; "G2D VL region ... of clones 24 and 25 ... grafted into the human germline sequence VKI-A20 with JK4 to generate hzG2D VLc (SEQ ID NO:249)" (antibody, V domains shown)
VH: B1 VH with S28T, T69S, I70L, R72V, T97A, S98R, L110V
VL: B1 VL with F36Y, A43V, S46L, F83V
modifications: Synthetic sequence hzG2.46D VH R66K, V67A, T68S, I69L, R71V; Synthetic sequence hzG2D VLc
On to B10, for which the “Guava HepG2 Screen” value is “None”.

B11: hzG2D-14: humanized G2D clone; "G2D VL region ... of clones 1-16, 19-21, 26-29, 31, and 33 ... grafted into the human germline sequence VKI-L1 with JK4" (antibody, V domains shown)
VH: B1 VH with T69S, I70L, R72V, T97A, S98R
VL: B1 VL
modifications: Synthetic sequence hzG2.4D VH T28S, R66K, V67A, T68S, I69L, R71V, V109L; Synthetic sequence hzG2D VLa
Consider B11, for which the “Guava HepG2 Screen” value is given as 37/16.
